Measurements published in paper doi:10.1101/2021.09.01.458653 (bioRxiv, 2021).

Molecular target: RBD-Fc (secreted recombinant receptor-binding domain of SARS-CoV-2 spike) (SARS-CoV-2, UniProt P0DTC2)
Experiment: immunoassay on cellulose filter paper discs

| Binder | binding result |
| --- | --- |
| Ty1-CBD bifunctional fusion protein (nanobody Ty1 fused to a cellulose-binding domain) (VHH) VHH: QVQLVETGGGLVQPGGSLRLSCAASGFTFSSVYMNWVRQAPGKGPEWVSRISPNSGNIGYTDSVKGRFTISRDNAKNTLYLQMNNLKPEDTALYYCAIGLNLSSSSVRGQGTQVTVSS | binds |
| Ty1 without CBD module (control protein) (VHH) VHH: QVQLVETGGGLVQPGGSLRLSCAASGFTFSSVYMNWVRQAPGKGPEWVSRISPNSGNIGYTDSVKGRFTISRDNAKNTLYLQMNNLKPEDTALYYCAIGLNLSSSSVRGQGTQVTVSS | binds |
